T1: peptide CDTTATTEPAVHD (entire-length peptide of 13 amino acids used as an immunogen)
T1 construct: Synthetic peptide with an added N-terminal cysteine; It was KLH-coupled only for immunization
T1 peptide: CDTTATTEPAVHD

T2: SEQ ID NO 28
T2 construct: Short fragment obtained by dividing the 13-aa immunogen peptide; also called divided peptide consisting of 7 amino acids
T2 peptide: CDTTATT

T3: SEQ ID NO 30
T3 construct: Short fragment obtained by dividing the 13-aa immunogen peptide; also called divided peptide consisting of 7 amino acids
T3 peptide: TEPAVHD

T4: SEQ ID NO 29
T4 construct: Short fragment obtained by dividing the 13-aa immunogen peptide; also called divided peptide consisting of 7 amino acids
T4 peptide: TATTEPA

T5: human CADM1 v9 fragment (human, UniProt Q9BY67-4 45-371)
T5 construct: Extracellular region of CADM1 v8/9 released from cells by protease cleavage; It was tested in, or purified from, the culture supernatant of SBC5 cells stably expressing CADM1 v8/9 (approximately 80 kDa, O-glycosylated region); also called v9 fragment of CADM1; CADM1 v8/9 fragment
T5 sequence: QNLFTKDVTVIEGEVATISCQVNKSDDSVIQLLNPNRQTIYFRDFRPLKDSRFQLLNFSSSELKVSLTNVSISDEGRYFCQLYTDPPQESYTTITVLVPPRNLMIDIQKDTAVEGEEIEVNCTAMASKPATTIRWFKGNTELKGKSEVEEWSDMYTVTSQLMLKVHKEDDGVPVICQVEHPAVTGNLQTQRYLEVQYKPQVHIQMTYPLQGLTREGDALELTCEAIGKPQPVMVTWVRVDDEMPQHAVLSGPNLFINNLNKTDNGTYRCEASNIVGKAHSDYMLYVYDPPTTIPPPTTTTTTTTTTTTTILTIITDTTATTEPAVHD


Key:
[1] = target: T1, peptide CDTTATTEPAVHD (entire-length …); experiment: ELISA on coated peptide, HRP-labeled antibody
Method: (§1) The anti-CADM1 v9 antibodies F1222 and F1315 were previously HRP-labeled using Peroxidase Labeling Kit-NH₂ (DOJINDO LABORATORIES), and epitopes were narrowed down according to an ELISA method. Peptide synthesis was outsourced to Toray Research Center, Inc. The peptide was dissolved in 10% DMSO/PBS to prepare a peptide solution having a concentration of 1 mg/mL. […] of the peptide diluted in a carbonate buffer to a concentration of […] was added to Nunc MaxiSorp 96-well plate (Thermo Fisher Scientific) and was left at rest at 4° C. overnight for immobilization. The plate was washed with PBS-T twice, and […] of 1%/BSA/PBS-T was added. The plate was left at rest at room temperature for 1 hour for blocking. The plate was washed with PBS-T twice, and […] of the HRP-labeled antibody diluted in 1% BSA/PBS-T to a concentration of 100 ng/mL was added, followed by incubation at room temperature for 1 hour. The plate was washed with PBS-T four times, and […] of TMB Soluble Reagent (ScyTek Laboratories) was then added for color development. […] of TMB Stop Buffer (ScyTek Laboratories) was further added to terminate the reaction. Finally, using the Ensight plate reader (PerkinElmer), the wavelength at 450 nm was measured.
(§2) In order to narrow down the epitope of the anti-CADM1 v9 antibody, a peptide consisting of 13 amino acids in entire length (SEQ ID NO: 2) used as an immunogen, and peptides obtained by dividing the aforementioned peptide into short fragments (SEQ ID NOS: 28 to 30) were synthesized, and the reactivity of these peptides to the anti-CADM1 v9 antibody was studied using an ELISA method.

[2] = target: T2, SEQ ID NO 28; experiment: ELISA on coated peptide, HRP-labeled antibody
Method: as §1, §2

[3] = target: T3, SEQ ID NO 30; experiment: ELISA on coated peptide, HRP-labeled antibody
Method: as §1, §2

[4] = target: T4, SEQ ID NO 29; experiment: ELISA on coated peptide, HRP-labeled antibody
Method: as §1, §2

[5] = target: T5, human CADM1 v9 fragment; experiment: sandwich ELISA on culture supernatant, capture E9935, detection HRP-labeled F1222
Method: (§3) PBS-T (137 mM NaCl, 8.1 mM […], 2.68 mM KCl, 1.47 mM KH₂PO₄, and 0.05% Tween 20) was used for washing twice, and […] of 1%/BSA (Wako Pure Chemical Industries, Ltd.)/PBS-T was added. The plate was left at rest at room temperature for 1 hour for blocking. The plate was washed with PBS-T twice, and thereafter, a standard for a calibration curve, a culture supernatant, and serum or pleural effusion were added, followed by incubation at room temperature for 1 hour. The plate was washed with PBS-T four times, and […] of the detection antibody diluted in 1% BSA/PBS-T to a concentration of 100 ng/mL was added, followed by incubation at room temperature for 1 hour. The plate was washed with PBS-T six times, and […] of TMB Soluble Reagent (ScyTek Laboratories) was then added for color development. […] of TMB Stop Buffer (ScyTek Laboratories) was further added to terminate the reaction. Finally, using an Ensight plate reader (PerkinElmer), the wavelength at 450 nm was measured.
(§4) (A) The total amount of CADM1 fragment or other cells and (B) the amount of the CADM1 v9 fragment, secreted in the culture supernatant of SCLC were measured according to a sandwich ELISA method. As a capture antibody, the anti-CADM1 mouse monoclonal antibody E9935 was used. As detection antibodies, the anti-CADM1 antibody E9919 and the anti-CADM1 v8/9 antibody F1222, which were HRP-labeled, were used. […]

[6] = target: T5, human CADM1 v9 fragment; experiment: sandwich ELISA on culture supernatant, E9935 as capture antibody, detection HRP-labeled F1222
Method: as §3, §4

binding result [1] | binding result [2] | binding result [3] | binding result [4] | binding result [5] | binding result [6] | Binder
binds | no binding (tested: 100 ng/mL antibody) | no binding (tested: 100 ng/mL antibody) | no binding (tested: 100 ng/mL antibody) | binds |  | anti-CADM1 v9 antibody F1222 (antibody, V domains shown, Mouse monoclonal antibody from a hybridoma (Cadm1-/- Balb/c mice); It was HRP-labeled (Peroxidase Labeling Kit-NH2) in the sandwich and peptide ELISAs; also called anti-CADM1 v8/9 antibody F1222) VH: EVQLVESGGGLVQPKGSLKLSCAASGFTFNTYAMNWVRQAPGKGLEWVARIRSKSNYYTTYYADSVKDRFTISRDDSQSMLYLQMNNLKTEDTAMYYCIRQRHGNFYWGQGTLVTVSA VL: DIVLTQSPASLAVSLGQRATISCKASQSVDYDGYSYMNWYQQKPGQPPKLLIYAASNLESGIPARFSGSGSGTDFTLNIHPVEEEDAATYYCQQSNEDPPTFGAGTKLELK
 |  |  |  |  | binds | anti-CADM1 mouse monoclonal antibody E9935 (antibody, V domains shown, Mouse monoclonal antibody from a hybridoma; It served as the capture antibody in the sandwich ELISA and, crosslinked to Protein A Sepharose, for purification; also called anti-CADM1 antibody E9935) VH: QVQLQQSGTELAKPGASVKMSCKASGYTFTHYWMHWVKQRPGQGLEWIGFINPGTGYTEYNQKFKDKATLTADKSSSTAYIQLSSLTSEDSAVYYCSRASYYSGSSHAWFGFWGQGTLVTVSA VL: DIVLTQSPASLAVSLGQRATISCKASQSVNYDGDNYMNWYQQKPGQPPKLLIYAASNLESGIPARFSGSGSGTDFTLNIHPVEEEDAATYYCQQSYEDPWTFGGGTKLEIK

— US20210079092A1 (UNIVERSITY OF TOKYO, published 2021)
